Laboratory results from publication PMC9182292.

Molecular target: human 6His-14-3-3ζ (human) (UniProt P63104)
Assay: pull-down; 6His-14-3-3ζ (0.1 mg) immobilised on Ni-NTA resin, 300 μL lysate of HEK293 cells expressing SNAP-TM reporters overnight at 4°C, 1% Triton X-100 in PBS with 25 mM imidazole; blot for the SNAP-tag, amount pulled down normalised to CT_(598-910), CT_(731-910) or untreated control; in some samples cells were treated before lysis with staurosporine (three hours) or more specific kinase inhibitors

Chain of UniProt P63104 (P63104 whole entry): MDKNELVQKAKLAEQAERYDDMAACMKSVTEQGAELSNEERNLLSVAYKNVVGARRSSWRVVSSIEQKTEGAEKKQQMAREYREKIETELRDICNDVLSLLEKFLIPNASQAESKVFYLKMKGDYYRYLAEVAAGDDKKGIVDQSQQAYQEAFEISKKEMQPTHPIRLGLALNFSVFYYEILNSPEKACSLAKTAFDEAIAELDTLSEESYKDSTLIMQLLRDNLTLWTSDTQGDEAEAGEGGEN

| Substance | fold of reporter pulled down compared to CT (598-910) [fold] | also measured |
| --- | --- | --- |
| SNAP-TM-HCN1CT reporter serially truncated to also lack the region containing peptide B (residues 790-820) (from UniProt O88704 598-790) (domain or fragment) | 0.23 |  |
| SNAP-TM-HCN1CT reporter serially truncated to lack the region containing peptide C (amino acids 850-880) (from UniProt O88704 598-850) (domain or fragment) | 0.61 |  |
| SNAP-TM-HCN1CT reporter lacking the distal 30 amino acid block with the TRIP8b-tripeptide binding site (from UniProt O88704 598-880) (domain or fragment) | 1.18 |  |
| SNAP-TM-HCN1CT reporter CT_(731-910) (from UniProt O88704 731-910) (domain or fragment) | 1.39 | fold of reporter pulled down from cells treated with the PKC inhibitor bisindolylmaleimide I compared to untreated control: 0.61 fold; fold of reporter pulled down from cells treated with the p38MAPK inhibitor PD 169316 compared to untreated control: 0.61 fold; fold of reporter pulled down from staurosporine-treated cells compared to untreated control: 0.26 fold |
| SNAP-TM-HCN1CT reporter CT_(731-910; S810A; S867A) (from UniProt O88704 731-910) (domain or fragment) |  | fold of reporter pulled down compared to CT (731-910): 0.33 fold |
| SNAP-TM-HCN1CT reporter CT_(731-910; Δ804–814; Δ861–871) (from UniProt O88704 731-910) (domain or fragment) |  | fold of reporter pulled down compared to CT (731-910): 0.26 fold |
| SNAP-TM-HCN1CT reporter with loss of residues 803-910 (from UniProt O88704 598-802) (domain or fragment) | 0.2 |  |
